This note sets out measurements from the domain aggregation screens of Martell et al. (2025).
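Further: 20 min heating vs room temperature control held 20 min.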

A short description of this series: soluble fraction after stress (log2 fold change); higher = more stays soluble; pooled small domains, quantitative proteomics. Conditions: stress: 75 degC.
With “HMEAVGLTPRQGDVLALLLQGKPNKLIARDLNLSVETVKDHVAAVLRALGVSTRTQAVLAVSQMQQQAAQ”, the “soluble fraction (log2)” value was -0.444.
The figure for “HMEAVLTISPGMYSESVSAELVRLGIITNQKEFNSYLVNNGYAERIQTGDFKIKADMSYDEIARIITK” is -0.563; for “HMEAYDTMEDRTTLAPGFAKLDKRERYILHLRFFEGLTQSQIAERVGISQMHVSRLIRRSLEKLREEIGD” it is -2.67.
As for “HMEAYSAEAVRFRIKAMIESETVDDVMSDDKIVERLLADGVDIARRTVAKYREAMNIPSSVKRRRKLKGM”, the “soluble fraction (log2)” value is -1.92.
The figure for “HMEDDRMLVWFFRKSIQNGAQSEAEGRPIFEGKDYVHIQQPGERDYIEREAHQGDIGRWPRHWQAYQEGR” is 0.246.
As for “HMEDEAVMQLPLSELKGLSPELLAILNGAGYEKLKDVLDLEREDIERIPGMTPERNEQLVAFLAELTE”, the “soluble fraction (log2)” value is 0.619.
The figure for “HMEDELFSVARAAFPEYASKIHMNYGSTVQSIARQSGVLTVSETKQLNENQQISYLEYSNGAVVLALA” is -0.0187; for “HMEDELVMERFDINELVKSVVNANELRATQKNLSITYDILDTPLYVWADEYKVEEVVTNYLS” it is 0.00277; for “HMEDIASESVKRVIRKIIDDEDKKSPLSDQAIVEILAKGEGIVIARRTVAKYREMMGILPSSKRKKH” it is -1.4.
In the case of “HMEDKIEESLEDNISELFAKTKDKYTLINDLYSKGYTVEELSRFSGLPSGEVRLVISLNSKN”, the “soluble fraction (log2)” value is -0.0653.
On to “HMEDKPITKEQKQAMFALLREHFSGDEGNAVYTAVLEREGLAPGDKIMSSVYDRLIDGINEAIRQKLEAGA”, for which the “soluble fraction (log2)” value is -0.0206.
With “HMEDNLMIVVQVNGKKRSEIKVSIDASEDQIKQTALAEPNVQKFVEGHTIRKMILVPSKLLNIVV”, the “soluble fraction (log2)” value was -1.65.
To “HMEDPKLAQLTEQERKILDLIADGLTNRQIAEKMFLAEKTVKNYVSTILAKMGMSNRSEAAAYVARLEAG” belongs -0.0697.
The figure for “HMEDPPISQEQRQALFKMAHDHLGKDEGNKAILTLIQSHGLNSTTGMKVSTYNTIMEELVSTIQSLAA” is -0.0374; for “HMEDPVAQEARAAFEVGRLLAAATGPVTLAAIRRAIDLPEERLEEILRRLEESGAVRRARDGWLPG” it is -0.0316; for “HMEDVDLFTKAMAALPNRYRDILLLRYSHGYTVEEISDILSMKPENVKKTIQRARKKLGEILEAEG” it is -1.25.
“HMEEDPVIAAQRFLNIFRQLHIFTAAKRKEFDELLLKQPASVKGMFASLPGGSVLQEYVNNLEQNAG”: the “soluble fraction (log2)” value is -0.564.
For the sequence “HMEEFIEHTVEKGEFLSAIIVAYNQHLKSKGFKSITTRDILNANPKLKPELIQVGQKIKIPRRKK”, the “soluble fraction (log2)” value was -1.71.
Consider “HMEEFLSFIADILEVDKNTLTLETSQDDVETWDSLMQLRLLGEIEAKYGVMIPMERISTIKKLNDFYQYIK”, for which the “soluble fraction (log2)” value was -1.12.
Turning to “HMEEIIPIRFLRHRVKRRETIFGLTQKYNITEDQLKRYNTRLYSEALERKMVLQIPVFPEVDED”, the “soluble fraction (log2)” value was -2.29.
With “HMEEITLQEQINFIKDMLLNKEKFHLTDVITKKSKIYVVSLFLALLELIRLEEINFRQTQNFSDIIISRI”, the “soluble fraction (log2)” value was determined as 0.0172.
Take “HMEELGKVRPELDGNEIAKVLGITPGPVLGRAYTYLLSVRLDEGPIGPDVARERLLAWWAEQPES”: the “soluble fraction (log2)” value is -1.2.
“HMEELIEMNGVVMEILPDSRYRVTLDNGHKLIAYTGGKMKKNHIRILAGDKVTLELSPYDINNGRITFRHI”: the “soluble fraction (log2)” value was -1.66.
The figure for “HMEELTDSELNNLYRELFIARSNASDGVGIIEQKTIKGITYRLSNDNNYLIKELGNKEYIYKNGVWEEYT” is -0.155.
Take “HMEENNIVIYITGAVKKEGIYEIKENSRISDAIEAAGGLLENANIKDINLAYIIEDGVKIYIPTNEEVNK”: the “soluble fraction (log2)” value was -0.409.
Take “HMEEPFRIEKKGDIYYISGKTVERLVAMTDLDNDSAVKRLQRTLKRMGVEDALREHGINPGDTVVIGNYEF”: the “soluble fraction (log2)” value is -0.201.
“HMEEQIEVPVQINGKVRSKLTVAPETDEKQIEALALADPKVQQQLEGKRVLKVIVAQKRLVNIVA”: the “soluble fraction (log2)” value is -0.161.
In the case of “HMEESTYQWNNFVRDFYASRVSAQYTNKLKVAAILWHHVKNTPQSKIYHDNLVSKYAEEINYFK”, the “soluble fraction (log2)” value was -2.8.
Take “HMEETEVPPVTGYEQSKASEVLTGKGLIPDIITVADEETAAGYVIRTDPASGEKVPSGTTVKVYVSSGP”: the “soluble fraction (log2)” value is 0.248.
Turning to “HMEETGFYIKLQDQEVVIFHNDQVTPYEYTGIREEVLPESELEKLREGFFVEDEKELYSVLENLS”, the “soluble fraction (log2)” value was 0.0782.
In the case of “HMEETLEELGKEYESAFTMYEKLWSYYKKQNYHQVNHKRSERYEILLGFVREYHPEKVEYYRELL”, the “soluble fraction (log2)” value is 0.378.
For “HMEETLRALAKKISEKVLKSGRSTTLEPMNPYERRIIHSAVSEIEGVSSKSVGEEPYRKVVISSDNP”, the “soluble fraction (log2)” value is 0.0756.
The figure for “HMEETLRELAVKISKQVIKTGRNSVLEPMNPYERRIIHAVISEIEGVSSKSVGEDPNRKVVIMSTNP” is -0.217.
The figure for “HMEEYTVEFVKHKVKRKQTLYTISKLYNVSIDDIIKYNSQIEGFNLSRRMELNIPVKKTLIVKNE” is -2.55; for “HMEFDTEFVLRQAMHAFMQYGYAKTSMQKLKEATHLHPGSIYAAYGNKKGLFLAATEQYQKDR” it is 0.288; for “HMEFEYFQLRDHLYNLIMHPDKEKLKKDPDYLKLMSMAFSLLEDQNVGKDILEIAIKSIENFK” it is -0.847.
As for “HMEFLDLEIDVDATDGRLLAFLAAKGEVVSQTFNDTIITVRVRMPTGAMGQVHRSALAIRPA”, the “soluble fraction (log2)” value is -2.24.
Turning to “HMEFLDQAFLHETMRKVNQDATINLLKKVYEVPQKFIGRKVTVQYDPEDLSRVYVKDLSFPEPVTVYPV”, the “soluble fraction (log2)” value was -0.18.
In the case of “HMEFNDLNDDEKAILHIMYNTGEKMTTALAARITNRGRNFASKLLKSLVKKEILEWHGTSKQDRNQYYTLA”, the “soluble fraction (log2)” value is -0.0971.
As to “HMEFQVKVIVSSLNIRSGPGTSYDTLGTVTKGDIFTIVETNSDSTWGKMQSGGWISIKDAYVKK”, the “soluble fraction (log2)” value is -3.92.
For the sequence “HMEFTFTLPRGYIDDTGMIHREGTMRLANAADEILPLKDPRVQQNPGYLTIILLARVITKLGSL”, the “soluble fraction (log2)” value was determined as 0.33.
To “HMEFTKSPLDEIAGVGPARKRALLAAFGTAKAVSQAALADLEKTPGVNAATARLVYAHFHEK” belongs -0.227; to “HMEFTVFMNSAGGSKLQVVKTVKELTGLGLKEAKAIVDGSPGPVKEGLSKADAEAMLAKLQEAGADVEL”, 0.013; to “HMEFYYSDLVGMIVYDTGGNELGKVQAVLNHGAGDLLEIHGVNLKTSILIPFTKEAVPTVDIAARRIVTDP”, 0.246.
As for “HMEGAEDMNRALALAFLRDNSRSTVAQLAEHLGSSKRSAERLVAQLKDEGVLERQGSPRAGLWIVHI”, the “soluble fraction (log2)” value was -0.169.
Turning to “HMEGEVVESPLVGVAYLASGPDKPAFVQVGDSVSKGQTLLIIEAMKVMNEVPAPRDGIVTEILV”, the “soluble fraction (log2)” value came to 0.1.
On to “HMEGFSAGQFVRASVDNTAFYLKRPKGDAVADKLLRRGASMKVISASGDYLKVELDSGEVGFVPPVMVE”, for which the “soluble fraction (log2)” value is 0.0267.
As to “HMEGIWAVFYDGKPINLKSSSLVANYPGPKYKKVSFSNPGHAENLAKKLNAQHNTDKFGVYLLKSGDKFS”, the “soluble fraction (log2)” value was -0.113.
To “HMEGMSIYVTVNGDMVHLTGKMSYVFVDVFEHIDFDLSKPQGSGIVTKLNGRDAQYMEEIRSGDMIEIYWR” belongs -0.956; to “HMEGNLVEIFEDAFGRTMSTMDIEYINQFKRTGYDDEMIVSALREAVKSNALSFRYIERVLENWAHS”, -0.881; to “HMEGTEVTTEPPGAQIEFDGKQFGPTPTRVPGLAAGKQFRITLAGYQEAKPKLKNNPKEGEPLSFTLTAI”, 0.338.
For “HMEGTVQQDKFDAYKAKFEDAISNDLNTSMAITIIYDLLKDDMNDKTKLALINDFDKVLSLNLTTA”, the “soluble fraction (log2)” value is -0.219.
As for “HMEGVTVPDVTRISLDEAEELLTSYGLRFEVADRRANSAFPGNYVIDQAPSAEVIVKPNRKIYLTVNAA”, the “soluble fraction (log2)” value is -0.238.
“HMEHDTVLSKVFRRLREAHVPLSLDDIYQGLRKTVNNNSEIREKIVTLQERGLVAEILGPKGGKKYVAKPT”: the “soluble fraction (log2)” value was -0.693.
For the sequence “HMEHIEVDTSHIAVGSKVKHKAFGLGEITDKGNTYVFVKFDGQAIPKKFQFPGAFTQGFLTK”, the “soluble fraction (log2)” value came out at 0.236.
Regarding “HMEHPNNTELTQKLELGTELMQYGDYNYALKVFNNVIDSDPEWSEAWNKRATVYFLMSQFTDSLSDIDRV”, the “soluble fraction (log2)” value is 0.331.
As to “HMEIDMQEGIKTIILMMKEHNITPSEAMKIYKSANGDIHYISKIYNHFKNKGADNFVALMIKMVKPGEFIE”, the “soluble fraction (log2)” value is -2.
As to “HMEIEETKKNSRTKIPENFDYKLINGLSNEIRAKLELIRPIDLLQASRIDGMTPAALTLVHLWIKKYSG”, the “soluble fraction (log2)” value was -1.52.
With “HMEIEIPEELQNKFAEIPELKTAFESLTPGRQRAYVLYFSQPKQSKTREARIEKYIPHILDGKGMN”, the “soluble fraction (log2)” value is 0.461.
Turning to “HMEIESAHAQVLGVREIAASGATQHWIAFRFSDGHQRELLATPSQADVIFRGQQGVVHFAGDRLTGWIPE”, the “soluble fraction (log2)” value is 0.104.
The figure for “HMEIEYFDDEELDAYKGRKSDSYTDEEAAQFAEVLYTMRPSEVKDWTASLTLRGISMPDQIKDEAIMLME” is -0.148; for “HMEIGELITLYRKQAGLTIDELSEKANVPKGTLNKIIGGITKAPTLETMRSIAYALGKKLADFDN” it is -0.503; for “HMEIHQVEFGGKVISFVLERKPVKNVNLHIKPDMTVMVSANEKVPLDFILGFVKQKAAWILKNIQFFEDV” it is -3.57.
Regarding “HMEIKDQADAYGKMEPASAAAILSEMTNDLTLVAKILDSMQTSKSALILQNMKPTTAAQVTTKMTAMK”, the “soluble fraction (log2)” value was found to be 0.0474.
As to “HMEILTRQLTHYLHLLPPAQQEVVRGVYLQDQTLQEIADRVQIPLGTVKSRLRLGLSKLREQIEQEHE”, the “soluble fraction (log2)” value is -1.36.
As to “HMEIMELPEYVVRSGSGLDAFREKWDLWDQGLMYDLKDKRAVFPIFIDGVMIDAVGRALAGAEPKWLRYTG”, the “soluble fraction (log2)” value was -0.176.
For the sequence “HMEINEDEIYEKIMIEIEQDNKVKSTWAKALSQSDGNKDKAESLYISMRFEELKYHQSYQKEELNLKDNQQ”, the “soluble fraction (log2)” value was found to be 0.0614.
To “HMEIPRYRLIGADGGRMVDLGEGQGAIPPVDVKRGMIDMPGLGKGYYTADGKSAVITNADGSKTRVL” belongs -0.25; to “HMEIRNLMPILSHFLNENDIKLSRESVNLVLDRASGNRENLNNELKKIHDYSFSNKIIDFETIKKLTNLG”, -0.0896.
